The record followed here is US20190361034A1.

In experiment [1] the target is MHC class II molecules on MHC class II-expressing Raji cells (human). Description: transfer cell ELISA, Raji cells; 125 ng/ml; plate row D.
For experiment [2] the target is unchanged. Description: transfer cell ELISA, Raji cells; 500 ng/ml; plate row D.
Experiment [3] has the same target. Description: transfer cell ELISA, Raji cells; 1000 ng/ml; plate row D.
Experiment [4] has the same target. Description: transfer cell ELISA, Raji cells; 62.5 ng/ml; plate row D.
Experiment [5] shares this target. Description: transfer cell ELISA, Raji cells; 15.63 ng/ml; plate row D.
The target is the same in experiment [6]. Description: transfer cell ELISA, Raji cells; 3.906 ng/ml; plate row C.
For experiment [7] the target is unchanged. The experiment in a line: direct ELISA, plate-immobilised Raji cells; 5% BSA, 2,500 cells; 500 ng/ml.
The target is the same in experiment [8]. The experiment in a line: direct ELISA, plate-immobilised Raji cells; 5% BSA, 5,000 cells; 500 ng/ml.
For experiment [9] the target is unchanged. Description: direct ELISA, plate-immobilised Raji cells; 10% FBS, 5,000 cells; 250 ng/ml.
Experiment [10] shares this target. The experiment in a line: direct ELISA, plate-immobilised Raji cells; 5% BSA, 10,000 cells; 125 ng/ml.
For experiment [11] the target is unchanged. The experiment in a line: direct ELISA, plate-immobilised Raji cells; 5% BSA, 2,500 cells; 1000 ng/ml.
Experiment [12] has the same target. The experiment in a line: direct ELISA, plate-immobilised Raji cells; 5% BSA, 2,500 cells; 62.5 ng/ml.
Experiment [13] shares this target. Description: direct ELISA, plate-immobilised Raji cells; 10% FBS, 10,000 cells; 500 ng/ml.
Experiment [14] has the same target. The experiment in a line: direct ELISA, plate-immobilised Raji cells; 10% FBS, 5,000 cells; 1000 ng/ml.
The target is the same in experiment [15]. Description: direct ELISA, plate-immobilised Raji cells; 5% BSA, 10,000 cells; 1000 ng/ml.
The target is the same in experiment [16]. Description: direct ELISA, plate-immobilised Raji cells; 5% BSA, 10,000 cells; 62.5 ng/ml.
The target is the same in experiment [17]. The experiment in a line: direct ELISA, plate-immobilised Raji cells; 5% BSA, 10,000 cells; 31.25 ng/ml.
For experiment [18] the target is unchanged. The experiment in a line: direct ELISA, plate-immobilised Raji cells; 5% BSA, 2,500 cells; 15.625 ng/ml.
For experiment [19] the target is unchanged. The experiment in a line: direct ELISA, plate-immobilised Raji cells; 5% BSA, 10,000 cells; 15.625 ng/ml.
For experiment [20] the target is unchanged. The experiment in a line: direct ELISA, plate-immobilised Raji cells; 10% FBS, 10,000 cells; 15.625 ng/ml.
Experiment [21] has the same target. Description: transfer cell ELISA, Raji cells; 31.25 ng/ml.
For experiment [22] the target is unchanged. The experiment in a line: direct ELISA, plate-immobilised Raji cells; 3% gelatin, 2,500 cells; 250 ng/ml.
For experiment [23] the target is unchanged. Description: direct ELISA, plate-immobilised Raji cells; 0.5% Casein, 2,500 cells; 125 ng/ml.
Experiment [24] shares this target. The experiment in a line: direct ELISA, plate-immobilised Raji cells; 0.5% Casein, 2,500 cells; 500 ng/ml.
Experiment [25] has the same target. Description: direct ELISA, plate-immobilised Raji cells; 0.5% Casein, 5,000 cells; 250 ng/ml.
For experiment [26] the target is unchanged. Description: direct ELISA, plate-immobilised Raji cells; 3% gelatin, 10,000 cells; 250 ng/ml.
Experiment [27] shares this target. The experiment in a line: direct ELISA, plate-immobilised Raji cells; 3% gelatin, 10,000 cells; 500 ng/ml.
Experiment [28] has the same target. The experiment in a line: direct ELISA, plate-immobilised Raji cells; 3% gelatin, 10,000 cells; 62.5 ng/ml.
For experiment [29] the target is unchanged. Description: direct ELISA, plate-immobilised Raji cells; 3% gelatin, 5,000 cells; 31.25 ng/ml.
For experiment [30] the target is unchanged. Description: direct ELISA, plate-immobilised Raji cells; 0.5% Casein, 2,500 cells; 31.25 ng/ml.
The target is the same in experiment [31]. The experiment in a line: direct ELISA, plate-immobilised Raji cells; 0.5% Casein, 2,500 cells; 15.625 ng/ml.
For experiment [32] the target is unchanged. Description: direct ELISA, plate-immobilised Raji cells; 3% gelatin, 10,000 cells; 15.625 ng/ml.
Experiment [33] shares this target. Description: BLI; IMP321 sample diluted from reference standard to 50% binding potency, Raji cells in solution; relative to reference standard.

Regarding “IMP321 treated with Peptide-N-Glycosidase F (PNGase F) (Fc fusion)”, the OD (ELISA signal) is 0.206 OD in experiment [1]; 0.594 OD in [2]; 1.13 OD in [3]; 0.076 OD in experiment [4]; 0.029 OD in [5]; 0.012 OD in [6]. Further, the OD (ELISA signal) in experiment [7] is 1.32 OD; in [8], 1.36 OD; in [9], 0.939 OD; in experiment [10], 0.395 OD; in [11], 1.83 OD; in [12] it was 0.297 OD. The OD (ELISA signal) in [13] was 1.35 OD; in [14], 2.25 OD; in experiment [15], 1.77 OD; in experiment [16], 0.283 OD; in experiment [17], 0.31 OD; in experiment [18] it was 0.281 OD. Moreover, the OD (ELISA signal) was determined as 0.366 OD in [19] and 0.333 OD in experiment [20].

“IMP321, recombinant soluble human LAG-3Ig fusion protein (Fc fusion)”: the OD (ELISA signal) was 0.159 OD in experiment [21]; 1.95 OD in experiment [22]; 0.163 OD in experiment [23]; 0.18 OD in experiment [24]; 0.255 OD in experiment [25]; 1.39 OD in [26]. The OD (ELISA signal) turned out to be 1.55 OD in experiment [27]; 0.417 OD in [28]; 0.359 OD in experiment [29]; 0.149 OD in [30]; 0.168 OD in [31]; 0.361 OD in experiment [32]. Further, in experiment [33], the Potency determined by BLI assay was 55%.
